Source: patent publication US20260207704A1, “STAPLED PEPTIDES AND METHODS THEREOF” (priority 2022, published 2026)
*1 amine or outer side, *2 acyl side, *3 side chain or, on linkers, in order; H or OH if unused. Bridges are numbered along the chain shown (N, C = ends). Primed or numbered codes have the meaning given here. [ ]: non-standard residue; d: D form. B5(4) = 2-amino-2-(pent-4-en-1-yl)hept-6-enoic acid, stapled through each of its two olefin groups with other olefin-containing amino acid residues, O=C(C(CCCC=[*:3])(CCCC=[*:4])N[*:1])[*:2]; PyrS2″ = (S)-3-amino-1-((pent-4-en-1-yloxy)carbonyl)pyrrolidine-3-carboxylic acid (olefin stapling residue), C=CCCCOC(=O)N1CC[C@@](N[*:1])(C(=O)[*:2])C1; PyrS2 = (S)-3-amino-1-((pent-4-en-1-yloxy)carbonyl)pyrrolidine-3-carboxylic acid, olefin staple residue, C=CCCCOC(=O)N1CC[C@@](N[*:1])(C(=O)[*:2])C1; PyrS2(3) = (S)-3-amino-1-((pent-4-en-1-yloxy)carbonyl)pyrrolidine-3-carboxylic acid, olefin residue, C=CCCCOC(=O)N1CC[C@@](N[*:1])(C(=O)[*:2])C1; PyrS2(5) = (S)-3-amino-1-((pent-4-en-1-yloxy)carbonyl)pyrrolidine-3-carboxylic acid, C=CCCCOC(=O)N1CC[C@@](N[*:1])(C(=O)[*:2])C1; B5″ = 2-amino-2-(pent-4-en-1-yl)hept-6-enoic acid (bis-olefin stapling residue), C=CCCCC(CCCC=C)(N[*:1])C(=O)[*:2]; B5(5) = 2-amino-2-(pent-4-en-1-yl)hept-6-enoic acid (two olefin arms), C=CCCCC(CCCC=C)(N[*:1])C(=O)[*:2]; B5(3) = 2-amino-2-(pent-4-en-1-yl)hept-6-enoic acid, two olefin arms, C=CCCCC(CCCC=C)(N[*:1])C(=O)[*:2]; 2F3MeF″ = aromatic residue, Cc1cccc(C[C@H](N[*:1])C(=O)[*:2])c1F; Phe(3-COOH) = N[C@@H](Cc1cccc(C(=O)O)c1)C(=O)O; 2F3MeF = Cc1cccc(C[C@H](N[*:1])C(=O)[*:2])c1F; Bta = N[C@@H](Cc1csc2ccccc12)C(=O)O; αAllylPro = C=CC[C@@]1(C(=O)O)CCCN1; tBuAla = CC(C)(C)C[C@H](N)C(=O)O; Gly(cBu) = N[C@H](C(=O)O)C1CCC1; 3Thi = N[C@@H](Cc1ccsc1)C(=O)O; PyrS2(4) = not defined here; BztA″ = aromatic residue; CyLeu = not defined here; Nle = CCCC[C@H](N)C(=O)O; TfeGA = not defined here; dGlnR = not defined here; GlnR = not defined here; Cpg = not defined here; PL3 = not defined here; B5 = not defined here; Aib = CC(C)(N)C(=O)O

Tests used:
beta-catenin (human) [1] = experiment: fluorescence polarization
beta-catenin (human), sequence (B6V8E6 146-665 limits assumed): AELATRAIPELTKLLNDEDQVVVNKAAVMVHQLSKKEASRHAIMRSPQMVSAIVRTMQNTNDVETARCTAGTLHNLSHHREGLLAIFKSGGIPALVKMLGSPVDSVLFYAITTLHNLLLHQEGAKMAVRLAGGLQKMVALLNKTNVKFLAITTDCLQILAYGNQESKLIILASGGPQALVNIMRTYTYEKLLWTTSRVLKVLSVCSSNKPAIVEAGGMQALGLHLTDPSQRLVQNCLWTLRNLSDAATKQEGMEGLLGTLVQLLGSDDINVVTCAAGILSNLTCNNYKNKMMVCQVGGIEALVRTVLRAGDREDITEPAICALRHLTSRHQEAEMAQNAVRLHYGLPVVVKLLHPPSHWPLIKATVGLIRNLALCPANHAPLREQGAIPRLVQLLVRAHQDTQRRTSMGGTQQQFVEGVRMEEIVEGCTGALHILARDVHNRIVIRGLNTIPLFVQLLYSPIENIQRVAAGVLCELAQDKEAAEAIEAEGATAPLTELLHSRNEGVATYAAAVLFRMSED

beta-catenin (human) [2] = experiment: cell-based or functional assay

| Binder | IC50 (beta-catenin (human) [1]) [nM] | NanoBRET Abs IC50 (bin >1.5 uM) (beta-catenin (human) [2]) [nM] | NanoBRET Abs IC50 (bin >3.0 uM) (beta-catenin (human) [2]) [nM] | NanoBRET Abs IC50 (beta-catenin (human) [2]) [nM] |
| --- | --- | --- | --- | --- |
| Ac-[αAllylPro]D[tBuAla][B5]D[Phe(3-COOH)][GlnR](29N2spiroundecane)AFL[PyrS2][2F3MeF][Bta][GlnR]A-NH2 (staple 1-4, 4-11 (inferred); not fully specified; printed as Ac-PL3-Asp-Npg-B5-Asp-3COOHF-[29N2spiroundecane]GlnR-Ala-Phe-Leu-PyrS2-2F3MeF-BztA-GlnR-Ala-NH2; reading uncertain; also: staple C=C reduced to CH2-CH2) [I-135] | > 1000 | – | – | > 10000 |
| Ac-[αAllylPro]D[tBuAla][B5(4)]D[TfeGA]AAFK[PyrS2(5)][2F3MeF][Bta][GlnR]V-NH2 (bridge 10-14; not fully specified (bridges); reading uncertain; also: Lys*3 and GlnR*3 marked *3) [I-129] | < 50 | – | < 10000 | – |
| Ac-[αAllylPro]D[tBuAla][B5(4)]D[TfeGA]AAFK[PyrS2″][2F3MeF][Bta][GlnR][Aib]-NH2 (bridge 10-14; not fully specified (bridges); reading uncertain; also: Lys*3 and GlnR*3 marked *3) [I-126] | < 50 | – | < 10000 | – |
| Ac-[PL3]DL[B5]D[Phe(3-COOH)]AAFK[PyrS2(4)][3Thi][Bta][GlnR]-NH2 (staple 1-4; bridge 10-14; not fully specified (residue 10); printed as Ac-PL3-Asp-Leu-B5-Asp-3COOHF-Ala-Ala-Phe-dLys*3-PyrS2-3Thi-BztA-GlnR*3-NH2; reading uncertain; also: PyrS2 tied into a staple, partner not placed) [I-10] | < 50 | – | – | > 10000 |
| XDLXDDAAFQXXXK (not fully specified; Ac-PL3-Asp-Leu-B5-Asp-Asp-Ala-Ala-Phe-GlnR*3-PyrS2-3Thi-BztA-Lys*3-NH2) [I-6] | < 50 | – | – | > 10000 |
| Ac-[αAllylPro]DL[B5(3)]DDKAF[GlnR][PyrS2(3)][3Thi][Bta]Q-NH2 (bridge 7-10; not fully specified (bridges); printed as Ac-PL3-Asp-Leu-B5-Asp-Asp-Lys*3-Ala-Phe-GlnR*3-PyrS2-3Thi-BztA-Gln-NH2; reading uncertain) [I-7] | < 50 | – | – | > 10000 |
| Ac-[αAllylPro]DL[B5(4)]D[Phe(3-COOH)]AAF[dGlnR][PyrS2″][3Thi][Bta]K-NH2 (bridge 10-14; not fully specified (bridges); printed as Ac-PL3-Asp-Leu-B5-Asp-3COOHF-Ala-Ala-Phe-DGlnR*3-PyrS2-3Thi-BztA-Lys*3-NH2; reading uncertain; also: DGlnR*3 and Lys*3 marked *3) [I-13] | < 50 | – | < 10000 | – |
| Ac-[αAllylPro]DL[B5(5)]DDAAFK[PyrS2(5)][3Thi][Bta][GlnR]-NH2 (bridge 10-14; not fully specified (bridges); printed as Ac-PL3-Asp-Leu-B5-Asp-Asp-Ala-Ala-Phe-Lys*3-PyrS2-3Thi-BztA-GlnR*3-NH2; reading uncertain) [I-4] | < 50 | – | – | > 10000 |
| Ac-[αAllylPro]E[tBuAla][B5(5)]E[Phe(3-COOH)][Aib]AFK[PyrS2(5)][3Thi][Bta][GlnR]A-NH2 (bridge 10-14; not fully specified (bridges); printed as Ac-PL3-Glu-Npg-B5-Glu-3COOHF-Aib-Ala-Phe-Lys*3-PyrS2-3Thi-BztA-GlnR*3-Ala-NH2; reading uncertain) [I-470] | > 1000 | – | – | > 10000 |
| Ac-[αAllylPro]D[tBuAla][B5]D[Phe(3-COOH)][Cpg]AFK[PyrS2″][2F3MeF″][BztA″][GlnR]LS-NH2 (bridge 10-14; not fully specified (bridges); printed as Ac-PL3-Asp-Npg-B5-Asp-3COOHF-Cpg-Ala-Phe-Lys*3-PyrS2-2F3MeF-BztA-GlnR*3-Leu-Ser-NH2; reading uncertain; also: Lys10 and GlnR14 marked *3) [I-139] | < 50 | < 3000 | – | – |
| Ac-[αAllylPro]D[tBuAla][B5]D[Phe(3-COOH)][Aib]AFK[PyrS2″][2F3MeF″][BztA″][GlnR]LS-NH2 (bridge 10-14; not fully specified (bridges); printed as Ac-PL3-Asp-Npg-B5-Asp-3COOHF-Aib-Ala-Phe-Lys*3-PyrS2-2F3MeF-BztA-GlnR*3-Leu-Ser-NH2; reading uncertain; also: Lys10 and GlnR14 marked *3) [I-138] | < 50 | < 3000 | – | – |
| Ac-[αAllylPro]D[tBuAla][B5]D[Phe(3-COOH)][Gly(cBu)]AFK[PyrS2″][2F3MeF″][BztA″][GlnR]LS-NH2 (bridge 10-14; not fully specified (bridges); printed as Ac-PL3-Asp-Npg-B5-Asp-3COOHF-Cbg-Ala-Phe-Lys*3-PyrS2-2F3MeF-BztA-GlnR*3-Leu-Ser-NH2; reading uncertain; also: Lys10 and GlnR14 marked *3) [I-140] | < 50 | – | – | < 1500 |
| Ac-[αAllylPro]D[tBuAla][B5]D[Phe(3-COOH)][Nle]AFK[PyrS2″][2F3MeF″][BztA″][GlnR]LS-NH2 (bridge 10-14; not fully specified (bridges); printed as Ac-PL3-Asp-Npg-B5-Asp-3COOHF-nLeu-Ala-Phe-Lys*3-PyrS2-2F3MeF-BztA-GlnR*3-Leu-Ser-NH2; reading uncertain; also: Lys10 and GlnR14 marked *3) [I-137] | < 50 | < 3000 | – | – |
| XDLXDDQAFKXXXQ (not fully specified; Ac-PL3-Asp-Leu-B5-Asp-Asp-GlnR*3-Ala-Phe-Lys*3-PyrS2-3Thi-BztA-Gln-NH2) [I-8] | < 50 | – | – | > 10000 |

Other lines, results leading:

| IC50 (beta-catenin (human) [1]) [nM] | NanoBRET Abs IC50 (bin >1.5 uM) (beta-catenin (human) [2]) [nM] | NanoBRET Abs IC50 (bin >3.0 uM) (beta-catenin (human) [2]) [nM] | NanoBRET Abs IC50 (beta-catenin (human) [2]) [nM] | Binder |
| --- | --- | --- | --- | --- |
| < 50 | < 3000 | – | – | Ac-[αAllylPro]D[tBuAla][B5]D[Phe(3-COOH)][CyLeu]AFK[PyrS2″][2F3MeF″][BztA″][GlnR]LS-NH2 (bridge 10-14; not fully specified (bridges); printed as Ac-PL3-Asp-Npg-B5-Asp-3COOHF-CyLeu-Ala-Phe-Lys*3-PyrS2-2F3MeF-BztA-GlnR*3-Leu-Ser-NH2; reading uncertain; also: Lys10 and GlnR14 marked *3) [I-141] |
| < 50 | – | < 10000 | – | Ac-[αAllylPro]D[tBuAla][B5(4)]D[TfeGA]AAFK[PyrS2″][2F3MeF][Bta][GlnR][Aib]-NH2 (bridge 10-14; not fully specified (bridges); reading uncertain; also: Lys*3 and GlnR*3 marked *3) [I-127] |
| < 50 | < 3000 | – | – | Ac-[PL3]DL[B5]D[Phe(3-COOH)]AAFK[PyrS2(4)][3Thi][Bta][GlnR]-NH2 (staple 1-4; bridge 10-14; reading uncertain; also: PyrS2 tied into a staple, partner not placed, printed as Ac-PL3-Asp-Leu-B5-Asp-3COOHF-Ala-Ala-Phe-Lys*3-PyrS2-3Thi-BztA-GlnR*3-NH2) [I-11] |
| < 50 | – | < 10000 | – | Ac-[αAllylPro]N[tBuAla][B5]D[Phe(3-COOH)][Aib]AFK[PyrS2″][2F3MeF″][BztA″][GlnR]LS-NH2 (bridge 10-14; not fully specified (bridges); printed as Ac-PL3-Asn-Npg-B5-Asp-3COOHF-Aib-Ala-Phe-Lys*3-PyrS2-2F3MeF-BztA-GlnR*3-Leu-Ser-NH2; reading uncertain; also: Lys10 and GlnR14 marked *3) [I-144] |
| < 50 | – | < 10000 | – | Ac-[αAllylPro]DL[B5″]D[Phe(3-COOH)]AAFK[PyrS2″][3Thi][Bta][GlnR]-NH2 (bridge 10-14; not fully specified (bridges); printed as Ac-PL3-Asp-Leu-B5-Asp-3COOHF-Ala-Ala-Phe-Lys*3-PyrS2-3Thi-BztA-GlnR*3-NH2; reading uncertain; also: Lys*3 and GlnR*3 marked *3) [I-12] |
| < 50 | < 3000 | – | – | Ac-[αAllylPro]D[tBuAla][B5]D[Phe(3-COOH)]AAFK[PyrS2″][2F3MeF″][BztA″][GlnR]LS-NH2 (bridge 10-14; not fully specified (bridges); printed as Ac-PL3-Asp-Npg-B5-Asp-3COOHF-Ala-Ala-Phe-Lys*3-PyrS2-2F3MeF-BztA-GlnR*3-Leu-Ser-NH2; reading uncertain; also: Lys10 and GlnR14 marked *3) [I-136] |
| < 50 | – | – | > 10000 | XDLXDDAAFQXXXK (not fully specified; Ac-PL3-Asp-Leu-B5-Asp-Asp-Ala-Ala-Phe-DGlnR*3-PyrS2-3Thi-BztA-Lys*3-NH2) [I-5] |
